Assay results: patent publication EP4745156A1
Residue numbers refer to the chain shown, from its start.

B1: 6465-H1K2-canIgGB (antibody, V domains shown)
VH: EVQLVESGGDLVKPGGSLRLSCVASGYSFTNYYLYWVRQAPGKGLEWVGELNPRNGGTNLNAKFKTRFTISVDKAKNMAYLQMNSLRAEDTAVYYCTRGGTTVVVRDVMDFWGQGTLVTVSS
VL: DIVLTQTPLSLSVSPGEPASISCRASESVDSYGNSFMHWYRQKPGQSPQLLIYRASNLESGVPDRFSGSGSRTDFTLRISRVEADDAGVYYCQQSNEDPYTFGQGTKLEIKR
B2: 6465-H1K3-canIgGB (antibody, V domains shown)
VH: B1 VH
VL: B1 VL with L4M, R72G
B3: 6465-H2K2-canIgGB (antibody, V domains shown)
VH: B1 VH with E46Q, V48L, M78T
VL: B1 VL
B4: 6465-H3K2-canIgGB (antibody, V domains shown)
VH: B1 VH with G49A, V72R, K74N
VL: B1 VL
B5: 6465-H2K3-canIgGB (antibody, V domains shown)
VH: B1 VH with E46Q, V48L, M78T
VL: B1 VL with L4M, R72G

These binders were tested against His-tagged canine IL-31 (interleukin 31) recombinant protein (canine) (assay: cell-based or functional assay).
B1 gave a pSTAT IC50 (µg/mL) of 7.9 µg/mL.
In the case of B2, the pSTAT IC50 (µg/mL) is reported as 7.4 µg/mL.
B3 was tested, and the pSTAT IC50 (µg/mL) was 7.3 µg/mL.
B4 showed a pSTAT IC50 (µg/mL) of 8.2 µg/mL.
For B5, the pSTAT IC50 (µg/mL) was 7.6 µg/mL.

What follows are binders tested against His-tagged canine IL-31 (interleukin 31) recombinant protein (canine) (assay: BLI (Gator), biotinylated antibody on streptavidin probe, canine IL-31 as analyte).
For B1, the Kd was 6.54 nM, the koff was 0.00088 s⁻¹ and the kon was 135000 M⁻¹ s⁻¹.
B2 gave a Kd of 2.5 nM, a koff of 0.00145 s⁻¹ and a kon of 579000 M⁻¹ s⁻¹.
Binder B3 has a Kd of 17.8 nM, a koff of 0.00166 s⁻¹ and a kon of 93200 M⁻¹ s⁻¹.
Binder B4 has a Kd of 6.95 nM, a koff of 0.00361 s⁻¹ and a kon of 519000 M⁻¹ s⁻¹.
B5 was tested, and the Kd was 4.99 nM, the koff was 0.001 s⁻¹ and the kon was 201000 M⁻¹ s⁻¹.
